Measurements as given in paper PMC11904497.

Columns and labels:
[1] = molecular target: S2SbHbN, Shewanella benthica strain KT99 TrHbN-2 (UniProt ID: A9DF82) with Cys51Ser and Cys71Ser replacements (Shewanella benthica strain KT99); assay: HP-SAXS (batch SAXS in the high-pressure cell); undiluted sample 10 mg/ml in the high-pressure cell, ambient pressure (0.101 MPa) point of the pressure series; volume-fraction analysis, radius of gyration and molecular mass
[2] = molecular target: Y34F S2SbHbN (Shewanella benthica strain KT99); assay: as above

Row | stoichiometry N [1] | stoichiometry N [2] | Substance
1 | 4 |  | S2SbHbN, Shewanella benthica strain KT99 TrHbN-2 (UniProt ID: A9DF82) with Cys51Ser and Cys71Ser replacements (natural protein)
2 |  | 4 | Y34F S2SbHbN (natural protein)
